Test results published in publication PMC2756588.

T1: Abp1, P15891
T1 sequence (P15891 535-592, looked up): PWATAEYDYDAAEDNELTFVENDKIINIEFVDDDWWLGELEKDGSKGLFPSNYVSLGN

T2: Bbc1, P47068
T2 sequence (P47068 1-78, looked up): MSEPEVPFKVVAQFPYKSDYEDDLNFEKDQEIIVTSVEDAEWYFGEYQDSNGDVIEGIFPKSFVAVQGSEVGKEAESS

T3: Boi1, P38041
T3 sequence (P38041 1-86, looked up): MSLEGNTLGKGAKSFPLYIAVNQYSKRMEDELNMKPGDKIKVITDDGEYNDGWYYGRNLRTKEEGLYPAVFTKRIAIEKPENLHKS

T4: Boi2, P39969
T4 sequence (P39969 32-116, looked up): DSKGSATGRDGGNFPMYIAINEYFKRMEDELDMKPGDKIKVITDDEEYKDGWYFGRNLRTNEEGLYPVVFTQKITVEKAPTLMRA

T5: Bud14, P27637
T5 sequence (P27637 247-328, looked up): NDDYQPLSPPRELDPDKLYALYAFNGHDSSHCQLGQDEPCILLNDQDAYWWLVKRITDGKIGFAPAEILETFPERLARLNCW

T6: Bzz1-1, P38822
T6 sequence (P38822 478-572, looked up): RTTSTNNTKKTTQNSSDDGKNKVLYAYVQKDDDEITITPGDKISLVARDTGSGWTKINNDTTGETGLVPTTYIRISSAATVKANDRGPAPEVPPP

T7: Bzz1-2, P38822
T7 sequence (P38822 568-633, looked up): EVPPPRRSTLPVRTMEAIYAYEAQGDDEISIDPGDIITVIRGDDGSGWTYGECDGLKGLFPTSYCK

T8: Cdc25, P04821
T8 sequence (P04821 50-136, looked up): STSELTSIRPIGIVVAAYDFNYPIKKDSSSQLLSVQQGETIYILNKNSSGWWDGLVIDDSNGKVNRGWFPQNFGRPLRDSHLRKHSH

T9: Cyk3, Q07533
T9 sequence (Q07533 1-83, looked up): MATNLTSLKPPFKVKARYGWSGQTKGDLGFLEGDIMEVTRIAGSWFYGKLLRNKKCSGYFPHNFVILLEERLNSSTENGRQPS

T10: Fus1, P11710
T10 sequence (P11710 432-512, looked up): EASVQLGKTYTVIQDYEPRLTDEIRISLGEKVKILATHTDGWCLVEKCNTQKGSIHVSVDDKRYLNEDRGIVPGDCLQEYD

T11: Hof1, Q05080
T11 sequence (Q05080 590-669, looked up): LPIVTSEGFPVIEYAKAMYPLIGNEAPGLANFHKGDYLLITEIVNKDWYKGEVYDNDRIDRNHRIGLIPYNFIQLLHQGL

T12: Hse1, P38753
T12 sequence (P38753 208-285, looked up): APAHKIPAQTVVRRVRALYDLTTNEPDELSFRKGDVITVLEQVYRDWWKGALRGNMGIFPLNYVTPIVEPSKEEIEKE

T13: Lsb1, P53281
T13 sequence (P53281 45-122, looked up): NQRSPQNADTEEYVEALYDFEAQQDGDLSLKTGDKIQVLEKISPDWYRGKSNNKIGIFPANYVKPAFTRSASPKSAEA

T14: Lsb3, P43603
T14 sequence (P43603 385-451, looked up): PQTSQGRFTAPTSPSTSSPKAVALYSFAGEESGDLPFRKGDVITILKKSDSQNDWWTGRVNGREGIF

T15: Lsb4, P32793
T15 sequence (P32793 402-468, looked up): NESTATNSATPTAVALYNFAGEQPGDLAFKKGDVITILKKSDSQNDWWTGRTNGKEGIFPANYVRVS

T16: Myo5, Q04439
T16 sequence (Q04439 1072-1160, looked up): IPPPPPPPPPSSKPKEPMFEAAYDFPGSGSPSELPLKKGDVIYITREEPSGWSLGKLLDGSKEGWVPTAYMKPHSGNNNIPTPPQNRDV

T17: Nbp2, Q12163
T17 sequence (Q12163 103-180, looked up): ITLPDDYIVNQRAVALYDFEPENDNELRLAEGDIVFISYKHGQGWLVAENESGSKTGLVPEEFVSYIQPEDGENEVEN

T18: Pex13, P80667
T18 sequence (P80667 295-386, looked up): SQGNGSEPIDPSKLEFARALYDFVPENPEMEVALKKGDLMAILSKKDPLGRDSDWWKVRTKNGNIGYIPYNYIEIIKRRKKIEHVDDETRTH

T19: Pin3, Q06449
T19 sequence (Q06449 53-122, looked up): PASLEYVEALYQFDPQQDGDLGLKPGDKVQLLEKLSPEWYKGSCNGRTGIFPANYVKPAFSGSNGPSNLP

T20: Sla1-2, P32790
T20 sequence (P32790 60-140, looked up): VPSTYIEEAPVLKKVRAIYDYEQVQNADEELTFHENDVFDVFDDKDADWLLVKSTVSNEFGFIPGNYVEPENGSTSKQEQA

T21: Sla1-3, P32790
T21 sequence (P32790 344-424, looked up): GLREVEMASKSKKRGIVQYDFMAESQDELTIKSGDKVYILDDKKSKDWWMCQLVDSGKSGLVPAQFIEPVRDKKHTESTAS


Columns and labels:
Assay in all cases: SPOT array
Abp1, P15891 = biological target: T1, Abp1, P15891; conditions: median of control spots 935
Bbc1, P47068 = biological target: T2, Bbc1, P47068; conditions: median of control spots 796
Bem1-1, P29366 = conditions: median of control spots 4282
Sequence of Bem1-1, P29366 (P29366 55-141): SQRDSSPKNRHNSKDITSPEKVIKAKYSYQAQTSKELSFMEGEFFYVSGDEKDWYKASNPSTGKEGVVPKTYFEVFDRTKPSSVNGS

Bem1-2, P29366 = conditions: median of control spots 4347
Sequence of Bem1-2, P29366 (P29366 139-227): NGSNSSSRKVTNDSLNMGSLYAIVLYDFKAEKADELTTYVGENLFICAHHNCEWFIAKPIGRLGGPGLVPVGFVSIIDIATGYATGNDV

Boi1, P38041 = biological target: T3, Boi1, P38041; conditions: median of control spots 1162
Boi2, P39969 = biological target: T4, Boi2, P39969; conditions: median of control spots 1161
Bud14, P27637 = biological target: T5, Bud14, P27637; conditions: median of control spots 956
Bzz1-1, P38822 = biological target: T6, Bzz1-1, P38822; conditions: median of control spots 4446
Bzz1-2, P38822 = biological target: T7, Bzz1-2, P38822; conditions: median of control spots 4538
Cdc25, P04821 = biological target: T8, Cdc25, P04821; conditions: median of control spots 969
Cyk3, Q07533 = biological target: T9, Cyk3, Q07533; conditions: median of control spots 1451
Fus1, P11710 = biological target: T10, Fus1, P11710; conditions: median of control spots 1200
GST = conditions: median of control spots 978
Hof1, Q05080 = biological target: T11, Hof1, Q05080; conditions: median of control spots 4086
Hse1, P38753 = biological target: T12, Hse1, P38753; conditions: median of control spots 1727
Lsb1, P53281 = biological target: T13, Lsb1, P53281; conditions: median of control spots 388
Lsb3, P43603 = biological target: T14, Lsb3, P43603; conditions: median of control spots 406
Lsb4, P32793 = biological target: T15, Lsb4, P32793; conditions: median of control spots 397
Myo3, P36006 = conditions: median of control spots 468
Myo5, Q04439 = biological target: T16, Myo5, Q04439; conditions: median of control spots 471
Nbp2, Q12163 = biological target: T17, Nbp2, Q12163; conditions: median of control spots 357
Pex13, P80667 = biological target: T18, Pex13, P80667; conditions: median of control spots 1341
Pin3, Q06449 = biological target: T19, Pin3, Q06449; conditions: median of control spots 2171
Rvs167, P39743 = conditions: median of control spots 2707
Sequence of Rvs167, P39743 (P39743 419-482): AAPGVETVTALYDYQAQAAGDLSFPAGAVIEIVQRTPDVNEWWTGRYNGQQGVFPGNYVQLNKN

Sho1, P40073 = conditions: median of control spots 1148
Sequence of Sho1, P40073 (P40073 287-367): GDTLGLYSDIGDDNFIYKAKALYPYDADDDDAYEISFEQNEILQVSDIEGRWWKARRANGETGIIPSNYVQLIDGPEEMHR

Sla1-2, P32790 = biological target: T20, Sla1-2, P32790; conditions: median of control spots 712
Sla1-3, P32790 = biological target: T21, Sla1-3, P32790; conditions: median of control spots 5475

Binder	SPOT intensity (Abp1, P15891)	SPOT intensity (Bbc1, P47068)	SPOT intensity (Bem1-1, P29366)	SPOT intensity (Bem1-2, P29366)	SPOT intensity (Boi1, P38041)	SPOT intensity (Boi2, P39969)	SPOT intensity (Bud14, P27637)	SPOT intensity (Bzz1-1, P38822)	SPOT intensity (Bzz1-2, P38822)	SPOT intensity (Cdc25, P04821)	SPOT intensity (Cyk3, Q07533)	SPOT intensity (Fus1, P11710)	SPOT intensity (GST)	SPOT intensity (Hof1, Q05080)	SPOT intensity (Hse1, P38753)	SPOT intensity (Lsb1, P53281)	SPOT intensity (Lsb3, P43603)	SPOT intensity (Lsb4, P32793)	SPOT intensity (Myo3, P36006)	SPOT intensity (Myo5, Q04439)	also measured
APPLPPTAPPPPSLP	0	0	0	89	0	0	0	0	0	2	0	0	1	51	12	0	0	0	537	559	SPOT intensity (Nbp2, Q12163): 0; SPOT intensity (Pex13, P80667): 4; SPOT intensity (Pin3, Q06449): 0; SPOT intensity (Rvs167, P39743): 0; SPOT intensity (Sho1, P40073): 0; SPOT intensity (Sla1-2, P32790): 0; SPOT intensity (Sla1-3, P32790): 3
VPPPMQPPPIESSNL	85	0	0	0	1	0	0	0	0	0	1	1	0	0	0	99	0	48	318	167	SPOT intensity (Nbp2, Q12163): 6; SPOT intensity (Pex13, P80667): 27; SPOT intensity (Pin3, Q06449): 114; SPOT intensity (Rvs167, P39743): 0; SPOT intensity (Sho1, P40073): 0; SPOT intensity (Sla1-2, P32790): 2; SPOT intensity (Sla1-3, P32790): 0
PPIPNAPLSPAPAVP	0	0	0	0	0	0	2	0	1	2	0	0	0	0	0	0	0	0	483	443	SPOT intensity (Nbp2, Q12163): 0; SPOT intensity (Pex13, P80667): 1; SPOT intensity (Pin3, Q06449): 0; SPOT intensity (Rvs167, P39743): 0; SPOT intensity (Sho1, P40073): 0; SPOT intensity (Sla1-2, P32790): 0; SPOT intensity (Sla1-3, P32790): 0

The next lines start with results.

SPOT intensity (Abp1, P15891)	SPOT intensity (Bbc1, P47068)	SPOT intensity (Bem1-1, P29366)	SPOT intensity (Bem1-2, P29366)	SPOT intensity (Boi1, P38041)	SPOT intensity (Boi2, P39969)	SPOT intensity (Bud14, P27637)	SPOT intensity (Bzz1-1, P38822)	SPOT intensity (Bzz1-2, P38822)	SPOT intensity (Cdc25, P04821)	SPOT intensity (Cyk3, Q07533)	SPOT intensity (Fus1, P11710)	SPOT intensity (GST)	SPOT intensity (Hof1, Q05080)	SPOT intensity (Hse1, P38753)	SPOT intensity (Lsb1, P53281)	SPOT intensity (Lsb3, P43603)	SPOT intensity (Lsb4, P32793)	SPOT intensity (Myo3, P36006)	SPOT intensity (Myo5, Q04439)	Binder	also measured
28	0	1	0	0	0	2	124	253	3	1	1	1	0	0	0	0	4	436	223	NPTKSPPPPPSPSTM	SPOT intensity (Nbp2, Q12163): 0; SPOT intensity (Pex13, P80667): 43; SPOT intensity (Pin3, Q06449): 109; SPOT intensity (Rvs167, P39743): 0; SPOT intensity (Sho1, P40073): 2; SPOT intensity (Sla1-2, P32790): 0; SPOT intensity (Sla1-3, P32790): 1
0	0	0	0	2	0	0	0	0	2	1	0	0	1	0	0	0	0	326	219	MFLISPPASPPPEFD	SPOT intensity (Nbp2, Q12163): 0; SPOT intensity (Pex13, P80667): 12; SPOT intensity (Pin3, Q06449): 65; SPOT intensity (Rvs167, P39743): 0; SPOT intensity (Sho1, P40073): 0; SPOT intensity (Sla1-2, P32790): 0; SPOT intensity (Sla1-3, P32790): 0
0	0	0	0	0	0	0	0	1	0	0	0	1	0	0	0	0	0	245	108	MSPLGAPPPPPHKDH	SPOT intensity (Nbp2, Q12163): 0; SPOT intensity (Pex13, P80667): 0; SPOT intensity (Pin3, Q06449): 0; SPOT intensity (Rvs167, P39743): 0; SPOT intensity (Sho1, P40073): 0; SPOT intensity (Sla1-2, P32790): 0; SPOT intensity (Sla1-3, P32790): 0
